Results reported in article PMC10076222, “From primordial clocks to circadian oscillators” (Nature, 2023).
Blank lines part the entries; values can stand above or below the molecule they belong to.

Assays:
[1] = molecular target: KaiC from Rhodobacter sphaeroides KD131, wild type, full length (KaiCRS) (Rhodobacter sphaeroides strain KD131/KCTC 12085); assay: AUC; sedimentation velocity, 30,000 r.p.m., 20 °C, 295 nm; 100 μM protein, 1 mM ATP (KaiCRS forms: 20 mM MOPS pH 6.5, 50 mM NaCl; KaiCSE: 20 mM MOPS pH 8.0, 150 mM NaCl)
[2] = molecular target: KaiC from Rhodobacter sphaeroides KD131, wild type, full length (KaiCRS) (Rhodobacter sphaeroides strain KD131/KCTC 12085); assay: SEC; Superdex-200 10/300 GL, about 40-80 μM protein, 20 mM MOPS pH 6.5, 50 mM NaCl, 2 mM TCEP, 10 mM MgCl2, 1 mM ATP, 4 °C
[3] = molecular target: KaiC from Rhodobacter sphaeroides KD131, wild type, full length (KaiCRS) (Rhodobacter sphaeroides strain KD131/KCTC 12085); assay: crystal structure; KaiCRS, sitting drop at 291 K; protein 10 mg/ml in 20 mM MOPS pH 6.5, 50 mM NaCl, 2 mM TCEP, 5 mM MgCl2, 3 mM ATP, 1 mM AMPPCP; 200 mM MgCl2, 100 mM HEPES pH 7.5, 30% PEG 400
[4] = molecular target: KaiC from Rhodobacter sphaeroides KD131, wild type, full length (KaiCRS) (Rhodobacter sphaeroides strain KD131/KCTC 12085); assay: SEC; Superdex-200 10/300 GL, unphosphorylated KaiCRS (40 μM) bound with ADP, buffer with 0.1 mM ADP instead of ATP, 4 °C
[5] = molecular target: His6-MBP-TEV-KaiBRS (KaiBRS-tag) (Rhodobacter sphaeroides strain KD131/KCTC 12085); assay: pull-down; as a10 but with 4 mM ATP and an ATP-recycling system instead of ADP
His6-MBP-TEV-KaiBRS (KaiBRS-tag) (Rhodobacter sphaeroides strain KD131/KCTC 12085), sequence (main, as listed by the source): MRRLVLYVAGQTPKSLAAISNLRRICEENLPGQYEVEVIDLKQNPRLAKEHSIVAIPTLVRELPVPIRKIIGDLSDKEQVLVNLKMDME

[6] = molecular target: KaiCRS-S413E/S414E (phosphomimetic mutant) (Rhodobacter sphaeroides strain KD131/KCTC 12085); assay: cryo-EM structure; KaiCRS-S413E/S414E:KaiBRS complex, 20 mM MOPS pH 6.50, 50 mM NaCl, 2 mM TCEP, 10 mM MgCl2, 2 mM ATP; ADP in the CI domain
[7] = molecular target: KaiCRS-S413E/S414E (phosphomimetic mutant) (Rhodobacter sphaeroides strain KD131/KCTC 12085); assay: cryo-EM structure; KaiCRS-S413E/S414E alone, 4.3 mg/ml in 20 mM MOPS pH 6.50, 50 mM NaCl, 2 mM TCEP, 10 mM MgCl2, 2 mM ATP; hexamers processed with C6, dodecamer with D6 symmetry
[8] = molecular target: KaiCRS-CI domain (KaiCIRS) (Rhodobacter sphaeroides strain KD131/KCTC 12085); assay: SEC; Superdex-200 10/300 GL, about 40-80 μM protein, 20 mM MOPS pH 6.5, 50 mM NaCl, 2 mM TCEP, 10 mM MgCl2, 1 mM ATP, 4 °C
[9] = molecular target: KaiCRS (Cereibacter sphaeroides, UniProt A0AAX7FLD9, E415S/E416S); assay: […] phosphoryl transfer from phosphoserine to ADP, TLC autoradiography; assay type: biochemical; settings: 4 mM ADP, ATP synthase reaction in CII domain, Ser413, pH 6.5, 30 °C
KaiCRS, sequence (A0AAX7FLD9 entry or part of it E415S/E416S): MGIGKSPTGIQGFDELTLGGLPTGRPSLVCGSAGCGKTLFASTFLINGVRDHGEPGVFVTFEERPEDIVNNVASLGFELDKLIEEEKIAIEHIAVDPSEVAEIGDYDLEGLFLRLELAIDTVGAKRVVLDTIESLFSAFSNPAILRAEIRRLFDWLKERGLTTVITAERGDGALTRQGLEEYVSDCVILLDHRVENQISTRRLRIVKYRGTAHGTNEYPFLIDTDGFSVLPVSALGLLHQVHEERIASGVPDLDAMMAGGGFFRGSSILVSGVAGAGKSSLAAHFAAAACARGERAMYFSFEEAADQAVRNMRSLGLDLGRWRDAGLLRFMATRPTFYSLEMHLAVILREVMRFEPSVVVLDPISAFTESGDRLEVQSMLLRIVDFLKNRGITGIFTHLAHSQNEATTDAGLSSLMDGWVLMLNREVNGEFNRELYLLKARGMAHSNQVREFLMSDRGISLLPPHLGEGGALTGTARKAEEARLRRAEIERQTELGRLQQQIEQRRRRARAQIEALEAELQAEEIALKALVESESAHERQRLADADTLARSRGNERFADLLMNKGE

[10] = molecular target: T1, KaiCRS-Δcoil (Cereibacter sphaeroides, UniProt A0AAX7FLD9, E415S/E416S); assay: X-ray crystal structure; assay type: binding; settings: ADP in all active sites
T1 construct: C-terminal coiled-coil truncated at Glu490 (stop codon introduced at position 490)
T1 sequence (A0AAX7FLD9 entry or part of it E415S/E416S): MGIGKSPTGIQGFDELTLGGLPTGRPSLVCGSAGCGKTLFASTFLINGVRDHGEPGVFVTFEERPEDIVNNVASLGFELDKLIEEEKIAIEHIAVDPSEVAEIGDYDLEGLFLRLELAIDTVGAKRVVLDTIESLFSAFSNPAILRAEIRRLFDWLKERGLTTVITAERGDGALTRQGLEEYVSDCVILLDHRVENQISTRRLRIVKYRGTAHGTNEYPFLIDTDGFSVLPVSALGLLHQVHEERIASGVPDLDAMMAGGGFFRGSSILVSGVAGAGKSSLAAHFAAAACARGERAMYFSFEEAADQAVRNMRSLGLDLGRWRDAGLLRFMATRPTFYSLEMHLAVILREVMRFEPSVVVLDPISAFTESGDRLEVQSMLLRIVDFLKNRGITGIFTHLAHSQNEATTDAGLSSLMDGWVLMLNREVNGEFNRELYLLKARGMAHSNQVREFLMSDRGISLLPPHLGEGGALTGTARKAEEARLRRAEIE

[11] = molecular target: KaiCRS-Δcoil (KaiCRS truncated at residue Glu490) (Rhodobacter sphaeroides strain KD131/KCTC 12085); assay: AUC; sedimentation velocity, 30,000 r.p.m., 20 °C, 295 nm; 100 μM protein, 1 mM ATP (KaiCRS forms: 20 mM MOPS pH 6.5, 50 mM NaCl; KaiCSE: 20 mM MOPS pH 8.0, 150 mM NaCl)
[12] = molecular target: KaiCRS-Δcoil (KaiCRS truncated at residue Glu490) (Rhodobacter sphaeroides strain KD131/KCTC 12085); assay: SEC; Superdex-200 10/300 GL, about 40-80 μM protein, 20 mM MOPS pH 6.5, 50 mM NaCl, 2 mM TCEP, 10 mM MgCl2, 1 mM ATP, 4 °C
[13] = molecular target: KaiCRS-Δcoil (KaiCRS truncated at residue Glu490) (Rhodobacter sphaeroides strain KD131/KCTC 12085); assay: crystal structure; KaiCRS-Δcoil, sitting drop at 291 K; 200 mM ammonium acetate, 100 mM sodium citrate pH 5.6, 30% PEG 4,000; space group C2221, three monomers in the asymmetric unit, hexamer by PISA
[14] = molecular target: KaiCRS-S413E/S414E (phosphomimetic mutant) (Rhodobacter sphaeroides strain KD131/KCTC 12085); assay: fluorescence polarisation; anisotropy competition, 30 °C: KaiBRS-6IAF (0.2-0.4 μM) with KaiCRS (1 μM), unlabelled KaiBRS 0-50 μM, 20 mM MOPS pH 6.5, 50 mM NaCl, 2 mM TCEP, 10 mM MgCl2, 4 mM ADP; 4 h or 12 h; Kd calculated from IC50
[15] = molecular target: KaiC from Rhodobacter sphaeroides KD131, wild type, full length (KaiCRS) (Rhodobacter sphaeroides strain KD131/KCTC 12085); assay: as above
[16] = molecular target: KaiC from Rhodobacter sphaeroides KD131, wild type, full length (KaiCRS) (Rhodobacter sphaeroides strain KD131/KCTC 12085)
[17] = molecular target: KaiC from Rhodobacter sphaeroides KD131, wild type, full length (KaiCRS) (Rhodobacter sphaeroides strain KD131/KCTC 12085); remark: listed apart in the source
[18] = molecular target: the molecule itself; assay: AUC; sedimentation velocity, 30,000 r.p.m., 20 °C, 295 nm; 100 μM protein, 1 mM ATP (KaiCRS forms: 20 mM MOPS pH 6.5, 50 mM NaCl; KaiCSE: 20 mM MOPS pH 8.0, 150 mM NaCl)
[19] = molecular target: the molecule itself; assay: SEC; Superdex-75 10/300 GL, KaiBRS 0.5 mM, 20 mM MOPS pH 6.5, 50 mM NaCl, 2 mM TCEP, 4 °C

stoichiometry N [1]: 12
stoichiometry N [2]: 12
stoichiometry N [3]: 12
stoichiometry N [4]: 12
Molecule: KaiC from Rhodobacter sphaeroides KD131, wild type, full length (KaiCRS) (enzyme)

percent co-eluted [5]: < 30%
Molecule: KaiCRS-S413A/S414A (enzyme)

stoichiometry N [6]: 12
percent co-eluted [5]: < 30%
stoichiometry N [7]: 12
Molecule: KaiCRS-S413E/S414E (phosphomimetic mutant) (enzyme)

stoichiometry N [8]: 6
Molecule: KaiCRS-CI domain (KaiCIRS) (domain or fragment)

Molecule: Nc1ncnc2c1ncn2[C@@H]1O[C@H](COP(=O)(O)OP(=O)(O)O)[C@@H](O)[C@H]1O [ADP]
32P phosphoryl transfer from phosphoserine to ADP, TLC autoradiography [9]: KaiCRS undergoes dephosphorylation through an ATP synthase mechanism
X-ray crystal structure [10]: contained three monomers in the asymmetric unit, with ADP present in all active sites

stoichiometry N [11]: 6
stoichiometry N [12]: 6
stoichiometry N [13]: 6
Molecule: KaiCRS-Δcoil (KaiCRS truncated at residue Glu490) (domain or fragment)

percent co-eluted [5]: < 30%
Molecule: phosphorylated wild-type KaiCRS (ATP-bound, with ATP-recycling system) (enzyme)

Kd [14]: 790 nM
Kd [15]: 420 nM
stoichiometry N (KaiBRS per KaiCRS dodecamer) [6]: 12
fold increase in ATPase activity of KaiCRS with KaiBRS at 30 °C [16]: 7.5 fold
ATPase activity of KaiCRS (3.5 μM) with KaiBRS (3.5 μM) in 4 mM ATP, ADP by HPLC, 20-35 °C (with KaiBRS 176, 1052, 1557, 2584; alone 108, 163, 208, 300 day^-1 KaiC^-1) [17]: 2580 ATP/day/KaiC
Molecule: KaiB from Rhodobacter sphaeroides KD131 (KaiBRS), tag cleaved (natural protein)

B1: KaiC from Synechococcus elongatus PCC 7942 (KaiCSE) (enzyme)
chain: MTSAEMTSPNNNSEHQAIAKMRTMIEGFDDISHGGLPIGRSTLVSGTSGTGKTLFSIQFLYNGIIEFDEPGVFVTFEETPQDIIKNARSFGWDLAKLVDEGKLFILDASPDPEGQEVVGGFDLSALIERINYAIQKYRARRVSIDSVTSVFQQYDASSVVRRELFRLVARLKQIGATTVMTTERIEEYGPIARYGVEEFVSDNVVILRNVLEGERRRRTLEILKLRGTSHMKGEYPFTITDHGINIFPLGAMRLTQRSSNVRVSSGVVRLDEMCGGGFFKDSIILATGATGTGKTLLVSRFVENACANKERAILFAYEESRAQLLRNAYSWGMDFEEMERQNLLKIVCAYPESAGLEDHLQIIKSEINDFKPARIAIDSLSALARGVSNNAFRQFVIGVTGYAKQEEITGLFTNTSDQFMGAHSITDSHISTITDTIILLQYVEIRGEMSRAINVFKMRGSWHDKAIREFMISDKGPDIKDSFRNFERIISGSPTRITVDEKSELSRIVRGVQEKGPES
notes: KaiC of Synechococcus elongatus PCC 7942; source: plasmid a gift from E. K. O'Shea
stoichiometry N [18]: 6

B2: KaiB from Synechococcus elongatus PCC 7942 (KaiBSE) (natural protein, UniProt Q79PF5 1-102, looked up)
chain: MSPRKTYILKLYVAGNTPNSVRALKTLKNILEVEFQGVYALKVIDVLKNPQLAEEDKILATPTLAKVLPLPVRRIIGDLSDREKVLIGLDLLYGELQDSDDF
notes: KaiB of Synechococcus elongatus PCC 7942
stoichiometry N [19]: 4
